IntAct's records for PubMed 21526221

B1: SWI5-dependent HO expression protein 3 (Saccharomyces cerevisiae), P38272 (parent)
chain: MSDQDNTQTSSSKLAPHHNIFMANLESSPTKDRNTSSQNASSSRVIESLHDQIDMLTKTNLQLTTQSQNLLSKLELAQSKESKLLENLNLLKNENENLNSIFERKNKKLKELEKDYSELSNRYNEQKEKMDQLSKLAKNSSAIEQSCSEKLQNMEVNYNSLLESQNLYRDHYSDEISKLNEKIGLLELELSNQNLNYGSDTSSNSDIELNLNKFNDSVKDLKSLETEKDSKLSKIITHSLDELNLQSWLNLYQTNENLISTFAEKMDLKDVLKRNDEKISNKGAVVQTLKKNVQTQVESNNADALSSNNAQDMLPIKMVKLRKTPNTNDSSSNGNSSNNKRRSFYTASPLLSSGSIPKSASPVLPGVKRTASVRKPSSSSSKTNVTHNNDPSTSPTISVPPGVTRTVSSTHKKKGNSMVVHGAQS

Variants of: B1
Conditions: with she2_yeast SHE2, P36068
Chain of she2_yeast SHE2, P36068 (P36068 whole entry): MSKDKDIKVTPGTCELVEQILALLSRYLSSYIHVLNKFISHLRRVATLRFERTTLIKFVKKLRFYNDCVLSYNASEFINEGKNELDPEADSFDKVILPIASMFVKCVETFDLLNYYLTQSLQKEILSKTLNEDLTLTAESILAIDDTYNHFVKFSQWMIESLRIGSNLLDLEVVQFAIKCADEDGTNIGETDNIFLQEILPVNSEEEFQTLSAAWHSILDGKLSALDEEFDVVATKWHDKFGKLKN

effect of a mutation on the interaction | Variant
disrupting interaction | MSDQDNTQTSSSKLAPHHNIFMANLESSPTKDRNTSSQNASSSRVIESLHDQIDMLTKTNLQLTTQSQNLLSKLELAQSKESKLLENLNLLKNENENLNSIFERKNKKLKELEKDYSELSNRYNEQKEKMDQLSKLAKNSSAIEQSCSEKLQNMEVNYNSLLESQNLYRDHYSDEISKLNEKIGLLELELSNQNLNYGSDTSSNSDIELNLNKFNDSVKDLKSLETEKDSKLSKIITHSLDELNLQSWLNLYQTNENLISTFAEKMDLKDVLKRNDEKISNKGAVVQTLKKNVQTQVESNNADALSSNNAQDMLPIKMVKLRKTPNTNDSSSNGNSSNNKRRSFYTASPLLSSGSIPKSASPVAPGAKRTASVRKPSSSSSKTNVTHNNDPSTSPTISVPPGVTRTVSSTHKKKGNSMVVHGAQS [L364A;V367A]
